Experimental data taken from US20220025021A1 (BETH ISRAEL DEACONESS MEDICAL CENTER, published 2022).

Experiments:
Assay in all cases: cell-based or functional assay
[1] = target: HIV-1 pseudovirus 263-8 (HIV-1)
[2] = target: HIV-1 pseudovirus X1193_c1 (HIV-1)
[3] = target: HIV-1 pseudovirus 6952.v1.c20 (HIV-1)
[4] = target: HIV-1 pseudovirus SC05.8C11.2344 (HIV-1)
[5] = target: HIV-1 pseudovirus AC10.0.29 (HIV-1)
[6] = target: HIV-1 pseudovirus Ce1176_A3 (HIV-1)

Binder	IC50 (neutralization in TZM.bl cells) [1] [µg/mL]	IC80 (neutralization in TZM.bl cells) [1] [µg/mL]	IC50 (neutralization in TZM.bl cells) [2] [µg/mL]	IC80 (neutralization in TZM.bl cells) [2] [µg/mL]	IC50 (neutralization in TZM.bl cells) [3] [µg/mL]	IC80 (neutralization in TZM.bl cells) [3] [µg/mL]	IC50 (neutralization in TZM.bl cells) [4] [µg/mL]	IC80 (neutralization in TZM.bl cells) [4] [µg/mL]	IC50 (neutralization in TZM.bl cells) [5] [µg/mL]	IC80 (neutralization in TZM.bl cells) [5] [µg/mL]	IC50 (neutralization in TZM.bl cells) [6] [µg/mL]	IC80 (neutralization in TZM.bl cells) [6] [µg/mL]
MS-82 (antibody, V domains shown) VH: QVQLVQSGPEVRKPGTSVKVSCKAPGNTLKTYDLHWVRSVPGQGLQWMGWISHEGDKKVIVERFKAKVTIDWDRSTNTAYLQLSGLRSGDTAVYYCAKGSKHRLRDYALYDDDGALNWAVDVDYLSNLEFWGQGTAVTVSS VL: DFVLTQSPHSLSVTPGESASISCKSSHSLIHGDRNNYLAWYVQKPGRSPQLLIYLASSRASGVPDRFSGSGSDKDFTLKISRVETEDVGTYYCMQGRESPWTFGQGTKVDIKR	0.011	0.033	0.084	0.411	0.212	23	0.502	1.8	0.05	0.267	0.023	0.635
MS-88 (antibody, V domains shown) VH: QVQLVQSGPEVRKPGTSVKVSCKASGYTFKTYDLHWVRSVPGQGLQWMGWISHEGDKKVIVERFKAKVTITRDRSTNTAYLQLSGLTSGDTAVYYCAKGSKHRLRDYALYDDDGALNWAVDVDYLSNLEFWGQGTAVTVSS VL: DFVLTQSPHSLSVTPGESASISCKSSHSLIHGDRNNYLAWYVQKPGRSPQLLIYLASSRASGVPDRFSGSGSDKDFTLKISRVETEDVGTYYCMQGRESPWTFGQGTKVDIKR	0.111	0.99	0.171	0.775	> 25	> 25	1.54	7.31	0.089	0.743	2.76	> 25
MS-83 (antibody, V domains shown) VH: QVQLVQSGPEVRKPGTSVKVSCKAPGNTLKTYDLHWVRSVPGQGLQWMGWISHEGDKKVIVERFKAKVTIDWDRSTNTAYLQLSGLTSGDTAVYYCAKGSKHRLRDYALYDDEGALNWAVDVDYLSNLEFWGQGTAVTVSS VL: DFVLTQSPHSLSVTPGESASISCKSSHSLIHGDRNNYLAWYVQKPGRSPQLLIYLASSRASGVPDRFSGSGSDKDFTLKISRVETEDVGTYYCMQGRESPWTFGQGTKVDIKR	0.007	0.05	0.061	0.308	0.126	3.09	0.381	1.88	0.038	0.259	0.029	0.405
MS-85 (antibody, V domains shown) VH: QVQLVQSGPEVRKPGTSVKVSCKAPGNTLKTYDLHWVRSVPGQGLQWMGWISHEGDKKVIVERFKAKVTIDWDRSTNTAYLQLSGLTSGDTAVYYCAKGSKHRLRDYALYDDDGALNWAVDVDYLSNLEFWGQGTAVTVSS VL: DIVLTQSPHSLSVTPGESASISCKSSHSLIHGDRNNYLAWYVQKPGRSPQLLIYLASSRASGVPDRFSGSGSGTDFTLKISRVETEDVGTYYCMQGRESPWTFGQGTKVDIKR	0.011	0.043	0.068	0.507	0.393	> 25	0.425	1.49	0.044	0.242	0.073	1.72
MS-84 (antibody, V domains shown) VH: QVQLVQSGPEVRKPGTSVKVSCKAPGNTLKTYDLHWVRSVPGQGLQWMGWISHEGDKKVIVERFKAKVTIDWDRSTNTAYLQLSGLRSGDTAVYYCAKGSKHRLRDYALYDDDGALNWAVDVDYLSNLEFWGQGTAVTVSS VL: DFVLTQSPLSLPVTPGEPASISCKSSHSLIHGDRNNYLAWYVQKPGQSPQLLIYLASSRASGVPDRFSGSGSDKDFTLKISRVEAEDVGVYYCMQGRESPWTFGQGTKVDIKR	0.006	0.03	0.058	0.285	0.237	18.2	0.481	1.74	0.052	0.257	0.018	0.567
MS-87 (antibody, V domains shown) VH: QVQLVQSGPEVRKPGTSVKVSCKAPGNTLKTYDLHWVRSVPGQGLQWMGWISHEGDKKVIVERFKAKVTITRDRSTNTAYLQLSGLTSGDTAVYYCAKGSKHRLRDYALYDDDGALNWAVDVDYLSNLEFWGQGTAVTVSS VL: DFVLTQSPHSLSVTPGESASISCKSSHSLIHGDRNNYLAWYVQKPGRSPQLLIYLASSRASGVPDRFSGSGSDKDFTLKISRVETEDVGTYYCMQGRESPWTFGQGTKVDIKR	0.065	0.361	0.098	0.277	> 25	> 25	1.23	5.17	0.059	0.328	0.907	25
MS-89 (antibody, V domains shown) VH: QVQLVQSGPEVRKPGTSVKVSCKAPGYTLKTYDLHWVRSVPGQGLQWMGWISHEGDKKVIVERFKAKVTITWDRSTNTAYLQLSGLTSGDTAVYYCAKGSKHRLRDYALYDDDGALNWAVDVDYLSNLEFWGQGTAVTVSS VL: DFVLTQSPLSLSVTPGESASISCKSSHSLIHGDRNNYLAWYVQKPGRSPQLLIYLASSRASGVPDRFSGSGSDKDFTLKISRVETEDVGTYYCMQGRESPWTFGQGTKVDIKR	> 25	> 25	0.144	0.636	> 25	> 25	0.82	3.75	0.067	0.618	0.298	9.21
MS-86 (antibody) VH: not shown VL: DFVLTQSPHSLSVTPGESASISCKSSHSLIHGDRNNYLAWYVQKPGRSPQLLIYLASSRASGVPDRFSGSGSDKDFTLKISRVETEDVGTYYCMQGRESPWTFGQGTKVDIKRTVAAPSVFIFPPSDEQLKSGTASVVCLLNNFYPREAKVQWKVDNALQSGNSQESVTEQDSKDSTYSLSSTLTLSKADYEKHKVYACEVTHQGLSSPVTKSFNRGEC	0.009	0.05	0.167	0.371	2.55	> 25	1.62	5.39	0.107	0.741	0.366	4.25
MS-90 (antibody) VH: not shown VL: DFVLTQSPLSLSVTPGESASISCKSSHSLIHGDRNNYLAWYVQKPGRSPQLLIYLASSRASGVPDRFSGSGSDKDFTLKISRVETEDVGTYYCMQGRESPWTFGQGTKVDIKRTVAAPSVFIFPPSDEQLKSGTASVVCLLNNFYPREAKVQWKVDNALQSGNSQESVTEQDSKDSTYSLSSTLTLSKADYEKHKVYACEVTHQGLSSPVTKSFNRGEC	0.021	0.109	0.114	0.399	2.68	> 25	1.5	3.84	0.059	0.592	0.22	4.24
